From the Immune Epitope Database (IEDB)

What was measured:
[1] = molecular target: HLA-B*27:05; assay: IEDB peptide-MHC binding, cellular MHC/competitive/radioactivity; ≥ and ≤ were set here for values at or beyond the usual limits of such assays; details: source organism: Hepacivirus hominis
[2] = molecular target: HLA-A*01:01; assay: IEDB peptide-MHC binding, purified MHC/direct/fluorescence; filed as Kd, often an IC50 or EC50 that approximates it; ≥ and ≤ were set here for values at or beyond the usual limits of such assays; details: source organism: Vibrio vulnificus
[3] = molecular target: HLA-A*02:01; assay: as above
[4] = molecular target: HLA-A*02:03; assay: as above; details: source organism: Vibrio vulnificus CMCP6
[5] = molecular target: HLA-A*02:06; assay: as above
[6] = molecular target: HLA-A*02:11; assay: as above; details: source organism: Vibrio vulnificus CMCP6
[7] = molecular target: HLA-A*02:12; assay: as above
[8] = molecular target: HLA-A*02:19; assay: as above; details: source organism: Vibrio vulnificus CMCP6
[9] = molecular target: HLA-A*03:01; assay: as above
[10] = molecular target: HLA-A*11:01; assay: as above; details: source organism: Vibrio vulnificus
[11] = molecular target: HLA-A*24:02; assay: as above; details: source organism: Vibrio vulnificus
[12] = molecular target: HLA-A*31:01; assay: as above; details: source organism: Vibrio vulnificus
[13] = molecular target: HLA-A*69:01; assay: as above; details: source organism: Vibrio vulnificus
[14] = molecular target: HLA-B*07:02; assay: as above; details: source organism: Vibrio vulnificus
[15] = molecular target: HLA-B*08:01; assay: as above; details: source organism: Vibrio vulnificus CMCP6
[16] = molecular target: HLA-B*08:02; assay: as above; details: source organism: Vibrio vulnificus CMCP6
[17] = molecular target: HLA-B*15:01; assay: as above
[18] = molecular target: HLA-B*18:01; assay: as above
[19] = molecular target: HLA-B*27:05; assay: as above; details: source organism: Vibrio vulnificus
[20] = molecular target: HLA-B*40:01; assay: as above; details: source organism: Vibrio vulnificus
[21] = molecular target: HLA-B*44:02; assay: as above; details: source organism: Vibrio vulnificus
[22] = molecular target: HLA-B*46:01; assay: as above
[23] = molecular target: HLA-B*58:01; assay: as above; details: source organism: Vibrio vulnificus
[24] = molecular target: HLA-A*02:50; assay: IEDB peptide-MHC binding, purified MHC/competitive/fluorescence; filed as Kd, often an IC50 or EC50 that approximates it; ≥ and ≤ were set here for values at or beyond the usual limits of such assays; details: source organism: Vibrio vulnificus YJ016
[25] = molecular target: HLA-A*02:01; assay: IEDB peptide-MHC binding, purified MHC/competitive/radioactivity; ≥ and ≤ were set here for values at or beyond the usual limits of such assays; details: source organism: Hepatitis C virus (isolate H77)
[26] = molecular target: HLA-A*02:02; assay: as above; details: source organism: Hepatitis C virus (isolate H77)
[27] = molecular target: HLA-A*02:03; assay: as above; details: source organism: Hepatitis C virus (isolate H77)
[28] = molecular target: HLA-A*02:06; assay: as above; details: source organism: Hepatitis C virus (isolate H77)
[29] = molecular target: HLA-C*04:01; assay: IEDB peptide-MHC binding, purified MHC/direct/fluorescence; filed as Kd, often an IC50 or EC50 that approximates it; ≥ and ≤ were set here for values at or beyond the usual limits of such assays; details: source organism: Shigella flexneri 2a str. 2457T
[30] = molecular target: HLA-C*08:02; assay: as above; details: source organism: Shigella flexneri 2a str. 2457T
[31] = molecular target: HLA-A*01:01; assay: IEDB peptide-MHC binding, purified MHC/competitive/fluorescence; filed as Kd, often an IC50 or EC50 that approximates it; ≥ and ≤ were set here for values at or beyond the usual limits of such assays; details: source organism: Shigella flexneri 2a str. 2457T
[32] = molecular target: HLA-B*35:01; assay: as above; details: source organism: Shigella flexneri 2a str. 2457T
[33] = molecular target: HLA-B*58:01; assay: as above; details: source organism: Shigella flexneri 2a str. 2457T
[34] = molecular target: HLA-B*27:03; assay: IEDB peptide-MHC binding, purified MHC/direct/fluorescence; filed as Kd, often an IC50 or EC50 that approximates it; ≥ and ≤ were set here for values at or beyond the usual limits of such assays; details: source organism: Salmonella enterica subsp. enterica serovar Typhimurium
[35] = molecular target: HLA-B*57:01; assay: as above; details: source organism: Salmonella enterica subsp. enterica serovar Typhimurium
[36] = molecular target: HLA-B*15:42; assay: IEDB peptide-MHC binding, purified MHC/competitive/fluorescence; filed as Kd, often an IC50 or EC50 that approximates it; ≥ and ≤ were set here for values at or beyond the usual limits of such assays; details: source organism: Acetivibrio thermocellus ATCC 27405
[37] = molecular target: HLA-B*45:06; assay: as above; details: source organism: Acetivibrio thermocellus ATCC 27405
[38] = molecular target: HLA-B*83:01; assay: as above; details: source organism: Acetivibrio thermocellus ATCC 27405
[39] = molecular target: HLA-C*04:01; assay: as above; details: source organism: Acetivibrio thermocellus ATCC 27405
[40] = molecular target: HLA-C*14:02; assay: IEDB peptide-MHC binding, purified MHC/direct/fluorescence; filed as Kd, often an IC50 or EC50 that approximates it; ≥ and ≤ were set here for values at or beyond the usual limits of such assays; details: source organism: Variola virus
[41] = source organism: Vibrio vulnificus
[42] = source organism: Vibrio vulnificus CMCP6
[43] = source organism: Salmonella enterica subsp. enterica serovar Typhimurium

ARHTPVNSW showed an IC50 [1] of 338 nM.

GLKELGDWV gave a Kd [2] of no less than 20000 nM, a Kd [3, 41] of 637 nM and a Kd [4] of 2 nM. The Kd [5, 42] was 145 nM, the Kd [6] was 9 nM and the Kd [7, 42] was 120 nM. For the same sequence, the Kd [8] was no less than 20000 nM, the Kd [9, 41] was no less than 20000 nM and the Kd [10] was no less than 20000 nM. The Kd [11] was no less than 20000 nM, the Kd [12] was no less than 20000 nM and the Kd [13] was no less than 5000 nM. It also gave a Kd [14] of no less than 20000 nM, a Kd [15] of no less than 20000 nM and a Kd [16] of no less than 20000 nM. It also gave a Kd [17, 41] of no less than 20000 nM, a Kd [18, 41] of no less than 20000 nM and a Kd [19] of no less than 20000 nM. For the same sequence, the Kd [20] was no less than 20000 nM, the Kd [21] was no less than 20000 nM and the Kd [22, 41] was no less than 20000 nM. For the same sequence, the Kd [23] was no less than 20000 nM and the Kd [24] was no more than 0.1 nM.

KLVGLGLNAV gave an IC50 [25] of 17 nM, an IC50 [26] of 14 nM and an IC50 [27] of 8.2 nM. For the same sequence, the IC50 [28] was 9 nM.

In the case of MSPDNALIY, the Kd [29] is reported as no less than 20000 nM, the Kd [30] is reported as no less than 20000 nM and the Kd [31] is reported as 89.9 nM. It also gave a Kd [32] of 7.2 nM and a Kd [33] of 457 nM.

With QVNDVLHSV the Kd [3, 43] was 41 nM, the Kd [5, 43] was 3 nM and the Kd [7, 43] was 91 nM. The Kd [9, 43] was no less than 20000 nM, the Kd [17, 43] was no less than 20000 nM and the Kd [18, 43] was no less than 20000 nM. The Kd [34] was no less than 20000 nM, the Kd [22, 43] was no less than 20000 nM and the Kd [35] was no less than 20000 nM.

TVIDVNTGK showed a Kd [36] of no less than 5000 nM, a Kd [37] of no less than 5000 nM and a Kd [38] of no less than 5000 nM. The Kd [39] was no less than 5000 nM.

In the case of VIYEAVIHL, the Kd [40] is reported as 195 nM.
